Source: patent publication US6531296

Experiments:
[1] = system: QAg mutant with tyrosine 497 changed to phenylalanine
[2] = system: QAg mutant with tyrosine 490 changed to phenylalanine
[3] = system: QAg mutant with tyrosine 450 changed to phenylalanine
[4] = system: QAg, hexahistidine fusion protein of the carboxy-terminal 62 amino acids of Rak
[5] = system: QAg mutant with tyrosine 463 changed to phenylalanine

Chain of p50^csk, cytoplasmic tyrosine kinase CSK purified from baculovirus-infected insect cells (P41240 whole entry): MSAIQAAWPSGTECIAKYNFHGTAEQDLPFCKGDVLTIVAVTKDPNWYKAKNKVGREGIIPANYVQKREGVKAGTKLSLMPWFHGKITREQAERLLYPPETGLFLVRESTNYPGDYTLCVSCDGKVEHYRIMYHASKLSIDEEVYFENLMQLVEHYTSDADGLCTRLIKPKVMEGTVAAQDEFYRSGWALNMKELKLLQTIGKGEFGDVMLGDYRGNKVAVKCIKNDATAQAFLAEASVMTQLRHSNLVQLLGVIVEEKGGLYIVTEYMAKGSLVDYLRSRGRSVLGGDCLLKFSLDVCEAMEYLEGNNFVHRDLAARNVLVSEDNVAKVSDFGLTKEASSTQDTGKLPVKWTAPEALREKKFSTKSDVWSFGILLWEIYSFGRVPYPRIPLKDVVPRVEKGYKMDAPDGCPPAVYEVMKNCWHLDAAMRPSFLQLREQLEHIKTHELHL

## p50^csk, cytoplasmic tyrosine kinase CSK purified from baculovirus-infected insect cells
[1]
  phosphorylation by CSK (in vitro kinase assay): Phosphorylation of the 497 mutant, however, was barely detectable
[2]
  phosphorylation by CSK (in vitro kinase assay) (fraction of wild-type peptide): 0.5
[3]
  phosphorylation by CSK (in vitro kinase assay) (fraction of wild-type peptide): 0.5
[4]
  phosphorylation by CSK (in vitro kinase assay): This peptide was readily phosphorylated by CSK
[5]
  phosphorylation by CSK (in vitro kinase assay): The mutant at position 463 was phosphorylated at levels equivalent to the wild-type peptide
